Assay results from US20080085863A1 (WISCONSIN ALUMNI RESEARCH FOUNDATION, published 2008).

Legend:
[1] = biological target: T1, Flag-tagged recombinant bone morphogenetic protein-1 (BMP-1) (UniProt P13497-2 121-730, limits assumed); experiment: cell-based or functional assay
T1 sequence (looked up): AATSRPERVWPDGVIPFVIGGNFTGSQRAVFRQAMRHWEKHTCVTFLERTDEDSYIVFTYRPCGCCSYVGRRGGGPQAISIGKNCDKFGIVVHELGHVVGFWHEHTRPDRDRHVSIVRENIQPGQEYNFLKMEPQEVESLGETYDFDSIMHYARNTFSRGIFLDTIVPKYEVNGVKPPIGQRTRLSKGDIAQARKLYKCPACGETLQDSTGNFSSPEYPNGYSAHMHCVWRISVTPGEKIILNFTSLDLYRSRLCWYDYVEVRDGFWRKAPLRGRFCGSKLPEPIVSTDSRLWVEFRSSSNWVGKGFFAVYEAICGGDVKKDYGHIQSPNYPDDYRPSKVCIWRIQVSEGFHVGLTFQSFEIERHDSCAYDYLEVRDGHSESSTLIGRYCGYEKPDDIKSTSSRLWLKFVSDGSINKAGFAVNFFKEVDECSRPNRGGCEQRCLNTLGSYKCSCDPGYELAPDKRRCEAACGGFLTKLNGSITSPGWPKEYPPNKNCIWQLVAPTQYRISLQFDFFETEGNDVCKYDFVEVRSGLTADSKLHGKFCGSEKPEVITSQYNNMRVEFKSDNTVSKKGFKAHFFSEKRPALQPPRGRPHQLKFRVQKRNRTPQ

[2] = biological target: T1, Flag-tagged recombinant bone …; experiment: ratio of second order rate constants, 35S-BMP-1 complex formation
Method: (§1) 40 nM ³⁵S-labeled BMP-1 was incubated with 20, 40, 80, 160, and 240 nM plasma α₂M, or recombinant wild type α₂M or with 5, 10, 20, 40, and 80 nM b-α₂M at 37° C. in 50 mM Tris-HCl, pH 7.5, 100 mM NaCl and 10 mM CaCl₂. Reactions were stopped at 10, 30, 60, 90 and 120 minutes (plasma α₂M and recombinant wild type α₂M), or at 2, 5, 10, 20 and 30 minutes (b-α₂M) by adding. SDS-PAGE sample buffer and boiling 5 minutes at 95° C. Protein samples were separated on 7.5% acrylamide SDS-PAGE gels, which were then treated with EN³HANCE (DuPont) and exposed to film. Percentages of BMP-1 incorporated into high molecular weight complexes were determined by densitometry and kinetic parameters were determined essentially via the method of Enghild J, et al, “Interaction of human rheumatoid synovial collagenase (matrix metalloproteinase 1) and stromelysin (matrix metalloproteinase 3) with human alpha 2-macroglobulin and chicken ovostatin. Binding kinetics and identification of matrix metalloproteinase cleavage sites,” J. Biol. Chem. 264:8779-8785 (1989).
(§2) To obtain a quantitative comparison of the rates of interaction of BMP-1 with the various wild type and mutant forms of α₂M, we employed the methodology of Enghild et al., supra, which involves quantification of covalent proteinase-α₂M complex formation, subsequent to incubation of radiolabeled proteinase with α₂M.

[3] = biological target: T1, Flag-tagged recombinant bone …; experiment: time course of covalent complex formation of 40 nM 35S-BMP-1 with increasing b-α2M, SDS-PAGE densitometry (method of Enghild et al.)
Method: as §1, §2

pCP inhibitory activity, IC50 [1]: 1.88 nM
α2M inhibition of BMP-1 (fold enhancement over the native bait region) [1]: ~25 fold
Relative effectiveness (against recombinant α2M = 1) [2]: 23.7 fold
fold more effective in interacting with BMP-1 than wild type α2M from plasma (second order rate constants) [2]: 15.7 fold
Ki [3]: 36.4 nM
B1: recombinant mutant α2-macroglobulin with the native bait region replaced by sequences flanking the human probiglycan BMP-1 cleavage site (b-α2M) (other)
chain: DYKDDDDKSVSGKPQYMVLVPSLLHTETTEKGCVLLSYLNETVTVSASLESVRGNRSLFTDLEAENDVLHCVAFAVPKSSSNEEVMFLTVQVKGPTQEFKKRTTVMVKNEDSLVFVQTDKSIYKPGQTVKFRVVSMDENFHPLNELIPLVYIQDPKGNRIAQWQSFQLEGGLKQFSFPLSSEPFQGSYKVVVQKKSGGRTEHPFTVEEFVLPKFEVQVTVPKIITILEEEMNVSVCGLYTYGKPVPGHVTVSICRKYSDASDCHGEDSQAFCEKFSGQLNSHGCFYQQVKTKVFQLKRKEYEMKLHTEAQIQEEGTVVELTGRQSSEITRTITKLSFVKVDSHFRQGIPFFGQVRLVDGKGVPIPNKVIFIRGNEANYYSNATTDEHGLVQFSINTTNVMGTSLTVRVNYKDRSPCYGYQWVSEEHEEAHHTAYLVFSPSKSFVHLEPMSHELPCGHTQTVQAHYILNGGTLLGLKKLSFYYLIMAKGGIVRTGTHGLLVKQEDMKGHFSISIPVKSDIAPVARLLIYAVLPTGDVIGDSAKYDVENCLANKVDLSFSPSQSLPASHAHLRVTAAPQSVCALRAVDQSVLLMKPDAELSASSVYNLLPEKDLTGFPGPLNDQDDEDCINRHNVYINGITYTPVSSTNEKDMYSFLEDMGLKAFTNSKIRKPKMCPQFWDFTLDDGPFMMNDEEASGADTSGVLDPDSVTPTYSAMVRKYFPETWIWDLVVVNSAGVAEVGVTVPDTITEWKAGAFCLSEDAGLGISSTASLRAFQPFFVELTMPYSVIRGEAFTLKATVLNYLPKCIRVSVQLEASPAFLAVPVEKEQAPHCICANGRQTVSWAVTPKSLGNVNFTVSAEALESQELCGTEVPSVPEHGRKDTVIKPLLVEPEGLEKETTFNSLLCPSGGEVSEELSLKLPPNVVEESARASVSVLGDILGSAMQNTQNLLQMPYGCGEQNMVLFAPNIYVLDYLNETQQLTPEIKSKAIGYLNTGYQRQLNYKHYDGSYSTFGERYGRNQGNTWLTAFVLKTFAQARAYIFIDEAHITQALIWLSQRQKDNGCFRSSGSLLNNAIKGGVEDEVTLSAYITIALLEIPLTVTHPVVRNALFCLESAWKTAQEGDHGSHVYTKALLAYAFALAGNQDKRKEVLKSLNEEAVKKDNSVHWERPQKPKAPVGHFYEPQAPSAEVEMTSYVLLAYLTAQPAPTSEDLTSATNIVKWITKQQNAQGGFSSTQDTVVALHALSKYGAATFTRTGKAAQVTIQSSGTFSSKFQVDNNNRLLLQQVSLPELPGEYSMKVTGEGCVYLQTSLKYNILPEKEEFPFALGVQTLPQTCDEPKAHTSFQISLSVSYTGSRSASNMAIVDVKMVSGFIPLKPTVKMLERSNHVSRTEVSSNHVLIYLDKVSNQTLSLFFTVLQDVPVRDLKPAIVKVYDYYETDEFAIAEYNAPCSKDLGNA
modifications: One subunit is given; cross-linking showed that the protein forms tetramers. The internal thioester and glycosylation are not carried by the letters.
notes: also called recombinant b-α2M; modified α2M
